Values belong to the binder of their own block, whether it stands above or below them. Square brackets hold non-standard residues; d marks the D form. Aib = CC(C)(N)C(=O)O
Columns and labels:
[1] = target: T1, human GLP-2 receptor (hGLP2-R) (human, UniProt O95838); test: cell-based or functional assay
T1 sequence: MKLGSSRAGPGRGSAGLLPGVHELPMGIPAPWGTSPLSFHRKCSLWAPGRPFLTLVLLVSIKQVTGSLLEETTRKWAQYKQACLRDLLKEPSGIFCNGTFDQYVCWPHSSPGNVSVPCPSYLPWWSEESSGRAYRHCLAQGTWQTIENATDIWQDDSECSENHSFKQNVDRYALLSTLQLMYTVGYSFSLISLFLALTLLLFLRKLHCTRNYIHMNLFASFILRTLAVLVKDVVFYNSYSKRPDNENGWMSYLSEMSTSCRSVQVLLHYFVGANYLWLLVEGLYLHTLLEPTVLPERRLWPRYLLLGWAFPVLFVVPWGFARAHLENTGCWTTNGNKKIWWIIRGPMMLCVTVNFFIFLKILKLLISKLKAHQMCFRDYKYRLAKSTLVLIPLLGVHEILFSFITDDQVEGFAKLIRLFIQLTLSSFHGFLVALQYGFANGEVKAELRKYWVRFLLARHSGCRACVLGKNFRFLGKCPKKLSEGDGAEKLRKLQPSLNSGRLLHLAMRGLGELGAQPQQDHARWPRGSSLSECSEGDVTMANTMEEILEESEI

[2] = target: human glucagon-like peptide 1 receptor (GLP-1R) (human, UniProt P43220); test: cell-based or functional assay

EC50 GLP-2 (nM); cAMP AlphaScreen [1]: 0.076 nM | EC50 GLP-1 (nM); cAMP AlphaScreen [2]: 0.055 nM
B1: Compound 12 (peptide)
peptide: H-H[Aib]EGTFTSELATILDEQAARDFIAWLHAHKITD-OH
SMILES: CC[C@H](C)[C@H](NC(=O)[C@H](Cc1ccccc1)NC(=O)[C@H](CC(=O)O)NC(=O)[C@H](CCCNC(=N)N)NC(=O)[C@H](C)NC(=O)[C@H](C)NC(=O)[C@H](CCC(N)=O)NC(=O)[C@H](CCC(=O)O)NC(=O)[C@H](CC(=O)O)NC(=O)[C@H](CC(C)C)NC(=O)[C@@H](NC(=O)[C@@H](NC(=O)[C@H](C)NC(=O)[C@H](CC(C)C)NC(=O)[C@H](CCC(=O)O)NC(=O)[C@H](CO)NC(=O)[C@@H](NC(=O)[C@H](Cc1ccccc1)NC(=O)[C@@H](NC(=O)CNC(=O)[C@H](CCC(=O)O)NC(=O)C(C)(C)NC(=O)[C@@H](N)Cc1c[nH]cn1)[C@@H](C)O)[C@@H](C)O)[C@@H](C)O)[C@@H](C)CC)C(=O)N[C@@H](C)C(=O)N[C@@H](Cc1c[nH]c2ccccc12)C(=O)N[C@@H](CC(C)C)C(=O)N[C@@H](Cc1c[nH]cn1)C(=O)N[C@@H](C)C(=O)N[C@@H](Cc1c[nH]cn1)C(=O)N[C@@H](CCCCN)C(=O)N[C@H](C(=O)N[C@H](C(=O)N[C@@H](CC(=O)O)C(=O)O)[C@@H](C)O)[C@@H](C)CC

EC50 GLP-2 (nM); cAMP AlphaScreen [1]: 0.083 nM | EC50 GLP-1 (nM); cAMP AlphaScreen [2]: 0.016 nM
B2: Compound 13 (peptide)
peptide: H-H[Aib]EGTFTSELATILDEQAARDFIAWLQAHKITD-OH
SMILES: CC[C@H](C)[C@H](NC(=O)[C@H](Cc1ccccc1)NC(=O)[C@H](CC(=O)O)NC(=O)[C@H](CCCNC(=N)N)NC(=O)[C@H](C)NC(=O)[C@H](C)NC(=O)[C@H](CCC(N)=O)NC(=O)[C@H](CCC(=O)O)NC(=O)[C@H](CC(=O)O)NC(=O)[C@H](CC(C)C)NC(=O)[C@@H](NC(=O)[C@@H](NC(=O)[C@H](C)NC(=O)[C@H](CC(C)C)NC(=O)[C@H](CCC(=O)O)NC(=O)[C@H](CO)NC(=O)[C@@H](NC(=O)[C@H](Cc1ccccc1)NC(=O)[C@@H](NC(=O)CNC(=O)[C@H](CCC(=O)O)NC(=O)C(C)(C)NC(=O)[C@@H](N)Cc1c[nH]cn1)[C@@H](C)O)[C@@H](C)O)[C@@H](C)O)[C@@H](C)CC)C(=O)N[C@@H](C)C(=O)N[C@@H](Cc1c[nH]c2ccccc12)C(=O)N[C@@H](CC(C)C)C(=O)N[C@@H](CCC(N)=O)C(=O)N[C@@H](C)C(=O)N[C@@H](Cc1c[nH]cn1)C(=O)N[C@@H](CCCCN)C(=O)N[C@H](C(=O)N[C@H](C(=O)N[C@@H](CC(=O)O)C(=O)O)[C@@H](C)O)[C@@H](C)CC

EC50 GLP-2 (nM); cAMP AlphaScreen [1]: 0.085 nM | EC50 GLP-1 (nM); cAMP AlphaScreen [2]: 0.011 nM
B3: Compound 11 (peptide)
peptide: H-H[Aib]EGTFTSELATILDGKAARDFIAWLIAHKITD-OH
SMILES: CC[C@H](C)[C@H](NC(=O)[C@H](CC(C)C)NC(=O)[C@H](Cc1c[nH]c2ccccc12)NC(=O)[C@H](C)NC(=O)[C@@H](NC(=O)[C@H](Cc1ccccc1)NC(=O)[C@H](CC(=O)O)NC(=O)[C@H](CCCNC(=N)N)NC(=O)[C@H](C)NC(=O)[C@H](C)NC(=O)[C@H](CCCCN)NC(=O)CNC(=O)[C@H](CC(=O)O)NC(=O)[C@H](CC(C)C)NC(=O)[C@@H](NC(=O)[C@@H](NC(=O)[C@H](C)NC(=O)[C@H](CC(C)C)NC(=O)[C@H](CCC(=O)O)NC(=O)[C@H](CO)NC(=O)[C@@H](NC(=O)[C@H](Cc1ccccc1)NC(=O)[C@@H](NC(=O)CNC(=O)[C@H](CCC(=O)O)NC(=O)C(C)(C)NC(=O)[C@@H](N)Cc1c[nH]cn1)[C@@H](C)O)[C@@H](C)O)[C@@H](C)O)[C@@H](C)CC)[C@@H](C)CC)C(=O)N[C@@H](C)C(=O)N[C@@H](Cc1c[nH]cn1)C(=O)N[C@@H](CCCCN)C(=O)N[C@H](C(=O)N[C@H](C(=O)N[C@@H](CC(=O)O)C(=O)O)[C@@H](C)O)[C@@H](C)CC

EC50 GLP-2 (nM); cAMP AlphaScreen [1]: 0.026 nM | EC50 GLP-1 (nM); cAMP AlphaScreen [2]: 0.006 nM
B4: Compound 16 (peptide)
peptide: H-H[Aib]EGTFTSELATILDEQAARDFIAWLIKHKITD-OH
SMILES: CC[C@H](C)[C@H](NC(=O)[C@H](Cc1ccccc1)NC(=O)[C@H](CC(=O)O)NC(=O)[C@H](CCCNC(=N)N)NC(=O)[C@H](C)NC(=O)[C@H](C)NC(=O)[C@H](CCC(N)=O)NC(=O)[C@H](CCC(=O)O)NC(=O)[C@H](CC(=O)O)NC(=O)[C@H](CC(C)C)NC(=O)[C@@H](NC(=O)[C@@H](NC(=O)[C@H](C)NC(=O)[C@H](CC(C)C)NC(=O)[C@H](CCC(=O)O)NC(=O)[C@H](CO)NC(=O)[C@@H](NC(=O)[C@H](Cc1ccccc1)NC(=O)[C@@H](NC(=O)CNC(=O)[C@H](CCC(=O)O)NC(=O)C(C)(C)NC(=O)[C@@H](N)Cc1c[nH]cn1)[C@@H](C)O)[C@@H](C)O)[C@@H](C)O)[C@@H](C)CC)C(=O)N[C@@H](C)C(=O)N[C@@H](Cc1c[nH]c2ccccc12)C(=O)N[C@@H](CC(C)C)C(=O)N[C@H](C(=O)N[C@@H](CCCCN)C(=O)N[C@@H](Cc1c[nH]cn1)C(=O)N[C@@H](CCCCN)C(=O)N[C@H](C(=O)N[C@H](C(=O)N[C@@H](CC(=O)O)C(=O)O)[C@@H](C)O)[C@@H](C)CC)[C@@H](C)CC

EC50 GLP-2 (nM); cAMP AlphaScreen [1]: 0.038 nM | EC50 GLP-1 (nM); cAMP AlphaScreen [2]: 0.005 nM
B5: Compound 15 (peptide)
peptide: H-H[Aib]EGTFTSELATILDEQAARDFIAWLIQHKITD-OH
SMILES: CC[C@H](C)[C@H](NC(=O)[C@H](Cc1ccccc1)NC(=O)[C@H](CC(=O)O)NC(=O)[C@H](CCCNC(=N)N)NC(=O)[C@H](C)NC(=O)[C@H](C)NC(=O)[C@H](CCC(N)=O)NC(=O)[C@H](CCC(=O)O)NC(=O)[C@H](CC(=O)O)NC(=O)[C@H](CC(C)C)NC(=O)[C@@H](NC(=O)[C@@H](NC(=O)[C@H](C)NC(=O)[C@H](CC(C)C)NC(=O)[C@H](CCC(=O)O)NC(=O)[C@H](CO)NC(=O)[C@@H](NC(=O)[C@H](Cc1ccccc1)NC(=O)[C@@H](NC(=O)CNC(=O)[C@H](CCC(=O)O)NC(=O)C(C)(C)NC(=O)[C@@H](N)Cc1c[nH]cn1)[C@@H](C)O)[C@@H](C)O)[C@@H](C)O)[C@@H](C)CC)C(=O)N[C@@H](C)C(=O)N[C@@H](Cc1c[nH]c2ccccc12)C(=O)N[C@@H](CC(C)C)C(=O)N[C@H](C(=O)N[C@@H](CCC(N)=O)C(=O)N[C@@H](Cc1c[nH]cn1)C(=O)N[C@@H](CCCCN)C(=O)N[C@H](C(=O)N[C@H](C(=O)N[C@@H](CC(=O)O)C(=O)O)[C@@H](C)O)[C@@H](C)CC)[C@@H](C)CC

EC50 GLP-2 (nM); cAMP AlphaScreen [1]: 0.049 nM | EC50 GLP-1 (nM); cAMP AlphaScreen [2]: 0.021 nM
B6: Compound 14 (peptide)
peptide: H-H[Aib]EGTFTSELATILDEQAARDFIAWLYAHKITD-OH
SMILES: CC[C@H](C)[C@H](NC(=O)[C@H](Cc1ccccc1)NC(=O)[C@H](CC(=O)O)NC(=O)[C@H](CCCNC(=N)N)NC(=O)[C@H](C)NC(=O)[C@H](C)NC(=O)[C@H](CCC(N)=O)NC(=O)[C@H](CCC(=O)O)NC(=O)[C@H](CC(=O)O)NC(=O)[C@H](CC(C)C)NC(=O)[C@@H](NC(=O)[C@@H](NC(=O)[C@H](C)NC(=O)[C@H](CC(C)C)NC(=O)[C@H](CCC(=O)O)NC(=O)[C@H](CO)NC(=O)[C@@H](NC(=O)[C@H](Cc1ccccc1)NC(=O)[C@@H](NC(=O)CNC(=O)[C@H](CCC(=O)O)NC(=O)C(C)(C)NC(=O)[C@@H](N)Cc1c[nH]cn1)[C@@H](C)O)[C@@H](C)O)[C@@H](C)O)[C@@H](C)CC)C(=O)N[C@@H](C)C(=O)N[C@@H](Cc1c[nH]c2ccccc12)C(=O)N[C@@H](CC(C)C)C(=O)N[C@@H](Cc1ccc(O)cc1)C(=O)N[C@@H](C)C(=O)N[C@@H](Cc1c[nH]cn1)C(=O)N[C@@H](CCCCN)C(=O)N[C@H](C(=O)N[C@H](C(=O)N[C@@H](CC(=O)O)C(=O)O)[C@@H](C)O)[C@@H](C)CC

EC50 GLP-2 (nM); cAMP AlphaScreen [1]: 0.05 nM | EC50 GLP-1 (nM); cAMP AlphaScreen [2]: 0.005 nM
B7: Compound 10 (peptide)
peptide: H-H[Aib]EGTFTSELSTILDEQAARDFIAWLIAHKITD-OH
SMILES: CC[C@H](C)[C@H](NC(=O)[C@H](CC(C)C)NC(=O)[C@H](Cc1c[nH]c2ccccc12)NC(=O)[C@H](C)NC(=O)[C@@H](NC(=O)[C@H](Cc1ccccc1)NC(=O)[C@H](CC(=O)O)NC(=O)[C@H](CCCNC(=N)N)NC(=O)[C@H](C)NC(=O)[C@H](C)NC(=O)[C@H](CCC(N)=O)NC(=O)[C@H](CCC(=O)O)NC(=O)[C@H](CC(=O)O)NC(=O)[C@H](CC(C)C)NC(=O)[C@@H](NC(=O)[C@@H](NC(=O)[C@H](CO)NC(=O)[C@H](CC(C)C)NC(=O)[C@H](CCC(=O)O)NC(=O)[C@H](CO)NC(=O)[C@@H](NC(=O)[C@H](Cc1ccccc1)NC(=O)[C@@H](NC(=O)CNC(=O)[C@H](CCC(=O)O)NC(=O)C(C)(C)NC(=O)[C@@H](N)Cc1c[nH]cn1)[C@@H](C)O)[C@@H](C)O)[C@@H](C)O)[C@@H](C)CC)[C@@H](C)CC)C(=O)N[C@@H](C)C(=O)N[C@@H](Cc1c[nH]cn1)C(=O)N[C@@H](CCCCN)C(=O)N[C@H](C(=O)N[C@H](C(=O)N[C@@H](CC(=O)O)C(=O)O)[C@@H](C)O)[C@@H](C)CC

— patent US11130793B2, “GLP-1/GLP-2 dual agonists” (Zealand Pharma A/S, priority 2016, dated 2021)
